# Test results: US20180155451A1 (published 2018)
# T1: FcγRIIb (human, UniProt P31994 43-217)
# T1 construct: extracellular domain; also called FcgRIIb; 2b; not shown: His tag at the C terminus
# T1 sequence (looked up): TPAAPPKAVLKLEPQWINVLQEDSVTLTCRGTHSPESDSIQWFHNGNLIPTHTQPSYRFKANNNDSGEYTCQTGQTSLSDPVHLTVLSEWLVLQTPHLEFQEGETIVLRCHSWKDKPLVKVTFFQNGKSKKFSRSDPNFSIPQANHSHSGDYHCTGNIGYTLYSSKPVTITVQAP
# T2: FcγRIIb extracellular domain with C-terminal His tag (human, UniProt P31994 43-217)
# T2 construct: extracellular domain; also called 2b; FcgRIIb; not shown: His tag at the C terminus
# T2 sequence (looked up): T1 sequence (looked up)
# B1: GpH7-A5/GpH7-B3 variant Q295_09D/GpL16-k0 (antibody, human IgG1, kappa)
# heavy 1: not shown
# heavy 2: not shown
# light: DIVMTQSPLSLPVTPGEPASISCQASESLVHSNRNTYLHWYLQKPGQSPQLLIYKVSNRFSGVPDRFSGSGSGTDFTLKISRVEAEDVGVYYCSQNTHVPPTFGQGTKVEIERTVAAPSVFIFPPSDEQLKSGTASVVCLLNNFYPREAKVQWKVDNALQSGNSQESVTEQDSKDSTYSLSSTLTLSKADYEKHKVYACEVTHQGLSSPVTKSFNRGEC
# notes: He Ab: mutation only in the GpH7-B3 H chain; EU numbering; also called He Ab
# B2: GpH7-A5/GpH7-B3 variant S298_03V/GpL16-k0 (antibody, human IgG1, kappa)
# heavy 1: not shown
# heavy 2: not shown
# light: B1 light
# notes: as for B1
# B3: GpH7-A5/GpH7-B3 variant S298_14T/GpL16-k0 (antibody, human IgG1, kappa)
# heavy 1: not shown
# heavy 2: not shown
# light: B1 light
# notes: as for B1
# B4: GpH7-A5/GpH7-B3 variant S337_08L/GpL16-k0 (antibody, human IgG1, kappa)
# heavy 1: not shown
# heavy 2: not shown
# light: B1 light
# notes: He Ab: mutation in the GpH7-B3 H chain only; also called He Ab
# B5: GpH7-A5/GpH7-B3 variant S298_01G/GpL16-k0 (antibody, human IgG1, kappa)
# heavy 1: not shown
# heavy 2: not shown
# light: B1 light
# notes: as for B1
# B6: GpH7-A5/GpH7-B3 variant Q295_10E/GpL16-k0 (antibody, human IgG1, kappa)
# heavy 1: not shown
# heavy 2: not shown
# light: B1 light
# notes: as for B1
# B7: GpH7-A5/GpH7-B3 variant S298_16H/GpL16-k0 (antibody, human IgG1, kappa)
# heavy 1: not shown
# heavy 2: not shown
# light: B1 light
# notes: as for B1
# B8: GpH7-A5/GpH7-B3 variant S267_05P/GpL16-k0 (antibody, human IgG1, kappa)
# heavy 1: not shown
# heavy 2: not shown
# light: B1 light
# notes: as for B4
# B9: GpH7-A5/GpH7-B3 variant S267_06M/GpL16-k0 (antibody, human IgG1, kappa)
# heavy 1: not shown
# heavy 2: not shown
# light: B1 light
# notes: as for B4
# B10: GpH7-A5/GpH7-B3 variant S298_09D/GpL16-k0 (antibody, human IgG1, kappa)
# heavy 1: not shown
# heavy 2: not shown
# light: B1 light
# notes: as for B1
# B11: GpH7-A5/GpH7-B3 variant V266_05P/GpL16-k0 (antibody, human IgG1, kappa)
# heavy 1: not shown
# heavy 2: not shown
# light: B1 light
# notes: as for B4
# B12: GpH7-A5/GpH7-B3 variant V266_06M/GpL16-k0 (antibody, human IgG1, kappa)
# heavy 1: not shown
# heavy 2: not shown
# light: B1 light
# notes: as for B4
# B13: GpH7-A5/GpH7-B3 variant Q295_18N/GpL16-k0 (antibody, human IgG1, kappa)
# heavy 1: not shown
# heavy 2: not shown
# light: B1 light
# notes: as for B1
# B14: GpH7-A5/GpH7-B3 variant S267_07I/GpL16-k0 (antibody, human IgG1, kappa)
# heavy 1: not shown
# heavy 2: not shown
# light: B1 light
# notes: as for B4
# B15: GpH7-A5/GpH7-B3 variant V266_10E/GpL16-k0 (antibody, human IgG1, kappa)
# heavy 1: not shown
# heavy 2: not shown
# light: B1 light
# notes: as for B4
# B16: GpH7-A5/GpH7-B3 variant V266_13S/GpL16-k0 (antibody, human IgG1, kappa)
# heavy 1: not shown
# heavy 2: not shown
# light: B1 light
# notes: as for B4
# B17: GpH7-A5/GpH7-B3 variant S337_07I/GpL16-k0 (antibody, human IgG1, kappa)
# heavy 1: not shown
# heavy 2: not shown
# light: B1 light
# notes: as for B4
# B18: GpH7-A5/GpH7-B3 variant V266_14T/GpL16-k0 (antibody, human IgG1, kappa)
# heavy 1: not shown
# heavy 2: not shown
# light: B1 light
# notes: as for B4
# B19: GpH7-A5/GpH7-B3 variant S298_10E/GpL16-k0 (antibody, human IgG1, kappa)
# heavy 1: not shown
# heavy 2: not shown
# light: B1 light
# notes: as for B1
# B20: GpH7-A5/GpH7-B3 variant S298_11K/GpL16-k0 (antibody, human IgG1, kappa)
# heavy 1: not shown
# heavy 2: not shown
# light: B1 light
# notes: as for B1
# B21: GpH7-A5/GpH7-B3 variant V266_07I/GpL16-k0 (antibody, human IgG1, kappa)
# heavy 1: not shown
# heavy 2: not shown
# light: B1 light
# notes: as for B4
# B22: GpH7-A5/GpH7-B3 variant V266_08L/GpL16-k0 (antibody, human IgG1, kappa)
# heavy 1: not shown
# heavy 2: not shown
# light: B1 light
# notes: as for B4
# B23: GpH7-A5/GpH7-B3 variant S298_02A/GpL16-k0 (antibody, human IgG1, kappa)
# heavy 1: not shown
# heavy 2: not shown
# light: B1 light
# notes: as for B1
# Tests used:
# [1] = molecular target: T1, FcγRIIb; test: SPR (Biacore), captured antibody, soluble FcγR; relative to GpH7-A5/GpH7-B3/GpL16-k0
# [2] = molecular target: T3, FcγRIa (human, UniProt P12314 16-292); test: as above
# T3 construct: extracellular domain; also called FcgRI; 1a; not shown: His tag at the C terminus
# T3 sequence (P12314 16-292): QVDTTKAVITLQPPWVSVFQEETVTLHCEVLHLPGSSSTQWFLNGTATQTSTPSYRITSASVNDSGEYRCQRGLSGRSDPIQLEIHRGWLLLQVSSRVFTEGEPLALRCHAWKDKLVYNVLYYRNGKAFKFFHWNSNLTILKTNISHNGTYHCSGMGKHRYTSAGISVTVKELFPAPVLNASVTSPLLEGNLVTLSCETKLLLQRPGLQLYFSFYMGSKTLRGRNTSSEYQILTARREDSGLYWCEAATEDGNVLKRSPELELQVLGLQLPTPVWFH
# [3] = molecular target: T2, FcγRIIb extracellular domain with …; test: SPR (Biacore), relative binding, GpH7-A5/GpH7-B3/GpL16-k0 = 100
# [4] = molecular target: T4, FcγRIIIa extracellular domain with C-terminal His tag (human, UniProt P08637 17-208); test: as above
# T4 construct: extracellular domain; also called 3a; FcgRIIIa; not shown: His tag at the C terminus
# T4 sequence (P08637 17-208): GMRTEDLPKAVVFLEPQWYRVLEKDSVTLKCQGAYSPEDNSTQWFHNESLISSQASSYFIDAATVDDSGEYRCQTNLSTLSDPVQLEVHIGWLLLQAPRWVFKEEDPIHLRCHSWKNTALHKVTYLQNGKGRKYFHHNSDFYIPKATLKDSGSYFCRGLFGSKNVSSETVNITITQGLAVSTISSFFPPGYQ
Binder,He/Con_2b [1],He/Con_1a [2],He/Con_2b [3],He/Con_3a [4]
B1,"60.8 relative, HeCon Ab = 100","100 relative, HeCon Ab = 100",,
B2,"64.5 relative, HeCon Ab = 100","110 relative, HeCon Ab = 100",,
B3,"77.9 relative, HeCon Ab = 100","107 relative, HeCon Ab = 100",,
B4,,,100 % of control,96.9 % of control
B5,"80.1 relative, HeCon Ab = 100","104 relative, HeCon Ab = 100",,
B6,"94.8 relative, HeCon Ab = 100","103 relative, HeCon Ab = 100",,
B7,"63.5 relative, HeCon Ab = 100","109 relative, HeCon Ab = 100",,
B8,,,31.5 % of control,15.7 % of control
B9,,,210 % of control,66 % of control
B10,"48.3 relative, HeCon Ab = 100","106 relative, HeCon Ab = 100",,
B11,,,0.4 % of control,-0.7 % of control
B12,,,251 % of control,85.8 % of control
B13,"64.9 relative, HeCon Ab = 100","102 relative, HeCon Ab = 100",,
B14,,,192 % of control,25.2 % of control
B15,,,15.2 % of control,4.1 % of control
B16,,,54.4 % of control,28.1 % of control
B17,,,104 % of control,94.8 % of control
B18,,,82.3 % of control,39.4 % of control
B19,"47.6 relative, HeCon Ab = 100","108 relative, HeCon Ab = 100",,
B20,"61.3 relative, HeCon Ab = 100","109 relative, HeCon Ab = 100",,
B21,,,152 % of control,114 % of control
B22,,,236 % of control,118 % of control
B23,"73.4 relative, HeCon Ab = 100","107 relative, HeCon Ab = 100",,
